Assay: yeast display, Sf9 membrane polyspecificity reagent, FACS + sequencing; frameworks hold sequencing errors
Method in brief: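 Synthetic nanobody libraries on Saccharomyces cerevisiae BJ5465 were galactose-induced for 36–48 hours, stained 1 hour at 4 °C with 10% biotinylated, detergent-solubilized Sf9 membrane reagent and enriched on streptavidin microbeads. FACS then separated cells into low and high (top ~1%) gates by anti-HA (expression) and streptavidin (reagent binding) fluorescence. Genes were colony-PCR amplified, MiSeq 2 × 250 sequenced and CDR-length filtered. A clone's polyreactivity label is that of its gate of origin.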

Sequence | polyreactivity (PSR sort gate)
QVQLVESGGGLVQAGGSLRISCAPSGLIFKYNAMGWYRQAPGKERDLVADINRSGGSTYYADSVKCRFTISRDNAKNTVYLQMNSLKPEDTEVYYCAAERDSLYWVLFGYWGQGTQVTVSS | low polyreactivity
QVQLVESGGGLVQAGGSLRISCASSGSTFGYYAIGWYRQAPGKESELVAAIRRSGGRTYYADSVKGRFTISRDNAKNTVYLQLNSLKPEDTAVYYCAKDGYSRRNSQKTPYDYWGQGTQVTVSS | low polyreactivity
QVQLVESGGGLVQAGGSLRISCDASGSTFSRYTLGWYRQAPVKEREMVAAISYRGGSTYYADSVKGRFTISRDNAKNTVYLQMNSLKPEDSAVYYCNADVPRIPYPDMEYWGQGTQVTVSS | low polyreactivity
QVQLVESGGGLVQAGGSLRITCAASGSILFAKSMGWYRQAPGKERELVADIRGSGSTYYADSVKGRFTISRDNAKNTVYLQMNSLKPEDTAVYYCAKRHLISIPDYGRHEYYYWGQGTQVTVSS | low polyreactivity
QVQLVESGGGLVQAGGSLRKSCAASGRIFGINAMGWSRQAPGNERELVAAITWGVGSTYYADSVKGRFTISRDNAKNTVYLQMNSLKPEDTAVYYCAKRRYYGYGGDYWGQGTQVTVSS | high polyreactivity
QVQLVESGGGLVQAGGSLRKSCAASGRIFSANAIGWYRKAPGTEWELVAAITCSGGSTYYADSVKGRFTISRDTAKNTVYLQMHSLKPEETAVYYCAAESAAYGGGTSDAGYESDYWGQGTQVTVSS | low polyreactivity
QVQLVESGGGLVQAGGSLRLAVLPPDLPSTLNDRGWYRQAPGKESELVAAITSGGNTYYADSVKGRFTISRDNAKNTVYLQMNSLKPEDTAVYYCAATYYWAWGGVYHSEFDYWGQGTQVTLSS | low polyreactivity
QVQLVESGGGLVQAGGSLRLCCAASGIIFQRNDMGWYRQAPGKERELVANIRDGGITYADSVKGRFTISRDNAKNTVYLQMNSLKPEDTAVYYCARDDTSPGYGDQSSIAAYYYWGQGTQVTVSS | low polyreactivity
QVQLVESGGGLVQAGGSLRLICAASGFIFGDYTMGWYRPAPGKEREVVAAITWYGDSTYYADSVKGRFTISRDNAKNTVYLQMNTLKTEDTAVYYCNAVNDWYYAYYGVTSFRSYDYWGQGSQVTVSS | low polyreactivity
QVQLVESGGGLVQAGGSLRLICAASGFIFGGYGMGWYRQAPGKERELVAVITASGGSTYYADSVKGRFTISRDNAKNTVYLQMNSLKPEDTAVYYCAARVGRYGYSQYYYWGQGTQVTVSS | high polyreactivity
QVQLVESGGGLVQAGGSLRLICAASGFIFRRYDMGWYRQAPGKERELVATITASVGSTNYADSVKGRFTISRDNAKNTVYLQMNSLKPEDTAVYYCATDIIGAIRVWDHTRMDYWGQGTQVTVSS | low polyreactivity
QVQLVESGGGLVQAGGSLRLICAASGFIFSSHAMGWYRQAPGKERELVAAISRSGGRTYYADSVKGRFTITRDNAKNTVYLQMNSLKPEDTAVYYCAAKRWWQYYWGQGTQVTVSS | high polyreactivity
QVQLVESGGGLVQAGGSLRLICAASGFIFTGYVMGWYRQEPGKERELVAAISSRGGSTYYADSVKGRFTISRDNAKNTVYLQMNSLKPEDTAVYYCAARYVYGSSYDYWGQGTQVTVSS | high polyreactivity
QVQLVESGGGLVQAGGSLRLICAASGFIFTYYGMGWYRQAPGKERELVAAITWSGASTYYADSVKGRFTISRDNAKNTVYLQMNSLKPEDTAVYYCNAGWDSGIVQSDETVYKYDYWGQGTQVTVSS | low polyreactivity
QVQLVESGGGLVQAGGSLRLICAASGFIYFFYAMGWSRQAPGKEMEFVAVITQSGGSTYYADSVKGRFTISRDNAKNTVYLQMNSLKPEDTAVYYFNADTVRYYPFFSVRYYYWGQGTQVTVSS | low polyreactivity
QVQLVESGGGLVQAGGSLRLICAASGFIYHNAMGWYRQATGTERELVARITWSGGSTSYADSVKGRFTISRDNAKNTVYLQKNSLKPEDTAVYYCAARGVVYRYGASRGYWGQGTQVTVSS | high polyreactivity
QVQLVESGGGLVQAGGSLRLICAASGFNFVTNAMGWYRQAPGKERELVAAISRRGGSTYYADSVKGRFTISRDIAKNTVYLQMNSLKPEDTAVLYCAAVTLSAESGYYWGHGTQVTVSS | high polyreactivity
QVQLVESGGGLVQAGGSLRLICAASGFSLYRNSMGWYRQAPGTERELVAAISSSGGRTYYADSVKGRFTISRDNAKNTVYLQMNSLKPEDTAVYYCAADFYRYGPQLGYWGQGTQVTVSS | high polyreactivity
QVQLVESGGGLVQAGGSLRLICAASGFTFFSYTMGWYRQAPGKERELVAAISKRGSRTYYADSVKGRFTISRDNAKNTVYLQMNSLKQEDTAVYYCAADSGPEVVHRREDYWGQGTQVTLSS | high polyreactivity
QVQLVESGGGLVQAGGSLRLICAASGFTFRTYAMGWYRQAPGKERELVAAINYSGGSTYYADSVKGRFTISRDNAKNTVYLQMNSVKPEDTAVYYCNKQRDVQVYVRYPMNYWGQGTQVTVSS | low polyreactivity
QVQLVESGGGLVQAGGSLRLICAASGFTFTDYAMGWYRQAPGKERELVAVIDSGGSTYYADSVKGRFTISRDNAKNTVYLQMNSLKPEDTAVYYCAAYNGTAPSEDYLGQGTQVTVSS | low polyreactivity
QVQLVESGGGLVQAGGSLRLICAASGFTLDQYAMGWYRPAPGKERELVAVITSGGNTYYADSVKGRFTISRDNAKNTVYLQMNSLKPEDTAVYYCAKDVSDPFYDPFEYWGQGTQVTVSS | low polyreactivity

Reference: the nanobody polyreactivity screen of Harvey et al. (2022)
